Source: the supplement of paper PMC10724198
± gives the standard deviation of the averaged measurements.

What was measured:
[1] = tested on: Saccharomyces cerevisiae; experiment: protein stability index of tFT-peptide fusion (C-terminal peptide) (PSI (0-1 scale)); higher = more stable (slower turnover); settings: genetic background: wild type; temperature: 30 C
[2] = tested on: Saccharomyces cerevisiae; experiment: as above
Procedure: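 MPS profiling in S. cerevisiae of the tFT-X12 degron library: putative degron peptides plus stable controls, 12 aa, fused to the C-terminus of a sfGFP-mCherry timer. Cells are FACS-sorted into 8 mCherry/sfGFP bins and deep-sequenced. PSI runs from 0 (unstable) to 1 (stable). Backgrounds are wild type, das1Δ and doa10Δ at 30 °C, and wild type, das1Δ, cdc34-1 and cdc53-1 at 37 °C; 2-3 technical replicates each.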

[3] = genetic background: cdc34-1, temperature: 37 C
[4] = genetic background: cdc53-1, temperature: 37 C
[5] = genetic background: das1 deletion, temperature: 30 C
[6] = genetic background: das1 deletion, temperature: 37 C
[7] = genetic background: doa10 deletion, temperature: 30 C
[8] = genetic background: wild type, temperature: 30 C
[9] = genetic background: wild type, temperature: 37 C
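Note: PSI is a weighted mean of sequencing reads over stability bins, variants kept only with over 10 reads, mCherry proximal and sfGFP distal, peptide attached via GGGS linker.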

Sequence	protein stability index [1]	protein stability index [2, 3]	protein stability index [2, 4]	protein stability index [2, 5]	protein stability index [2, 6]	protein stability index [2, 7]	protein stability index [2, 8]	protein stability index [2, 9]
LCLLFLSFFFVC	0.307 ± 0.0056	0.464 ± 0.0083	0.515 ± 0.014	0.374 ± 0.037	0.555 ± 0.086	0.229 ± 0.015	0.234 ± 0.027	0.361 ± 0.0065
LCVVVICCLMAR	0.279 ± 0.05	0.097 ± 0.025	0.198 ± 0.055	0.123 ± 0.036	0.265 ± 0.0071	0.0806 ± 0.015	0.125 ± 0.026	0.216 ± 0.012
LDLSSVFILYFN	0.374 ± 0.022	0.599 ± 0.041	0.6735 ± 0.0021	0.518 ± 0.0058	0.709 ± 0.048	0.2653 ± 0.0025	0.28 ± 0.028	0.54398 ± 0.00036
LEGRFLACRGIC	0.264 ± 0.04	0.619 ± 0.028	0.719 ± 0.048	0.598 ± 0.018	0.728 ± 0.02	0.144 ± 0.017	0.157 ± 0.011	0.325 ± 0.02
LEVHGSCIFICV	0.444 ± 0.017	0.5422 ± 0.0046	0.5462 ± 0.0037	0.359 ± 0.039	0.5674 ± 0.0018	0.336 ± 0.041	0.374 ± 0.0092	0.492 ± 0.026
LFAIFLVVLLFR	0.219 ± 0.054	0.106 ± 0.016	0.089 ± 0.0072	0.195 ± 0.03	0.273 ± 0.0081	0.297 ± 0.0092	0.201 ± 0.028	0.2089 ± 0.0002
LFFPLPGILSFF	0.523 ± 0.046	0.76 ± 0.027	0.771 ± 0.022	0.631 ± 0.022	0.7783 ± 0.0029	0.484 ± 0.0073	0.498 ± 0.02	0.676 ± 0.033
LFFWVLTVMFVW	0.302 ± 0.046	0.162 ± 0.025	0.23 ± 0.0048	0.224 ± 0.013	0.3199 ± 0.00034	0.222 ± 0.011	0.195 ± 0.015	0.283 ± 0.015
LFGRVLSGILSV	0.523 ± 0.06	0.687 ± 0.04	0.721 ± 0.015	0.567 ± 0.019	0.702 ± 0.028	0.474 ± 0.014	0.524 ± 0.037	0.68 ± 0.011
LFLLSHYALCFY	0.3967 ± 0.0035	0.523 ± 0.0055	0.53 ± 0.018	0.441 ± 0.018	0.593 ± 0.028	0.333 ± 0.0045	0.336 ± 0.017	0.527 ± 0.012
LFLSFLLFVLAF	0.388 ± 0.042	0.434 ± 0.023	0.444 ± 0.015	0.319 ± 0.029	0.471 ± 0.036	0.302 ± 0.0039	0.312 ± 0.045	0.425 ± 0.0086
LFLSIFFFHLLF	0.37 ± 0.033	0.314 ± 0.023	0.251 ± 0.049	0.338 ± 0.041	0.4359 ± 0.0036	0.439 ± 0.045	0.313 ± 0.01	0.385 ± 0.041
LFPVFFPLFAPA	0.322 ± 0.03	0.285 ± 0.029	0.336 ± 0.035	0.266 ± 0.034	0.404 ± 0.018	0.206 ± 0.013	0.271 ± 0.018	0.36504 ± 0.00017
LFSCTQLLPITA	0.245 ± 0.032	0.0614 ± 0.017	0.077 ± 0.012	0.173 ± 0.02	0.198 ± 0.0068	0.141 ± 0.013	0.176 ± 0.018	0.166 ± 0.0061
LFSIFMSYRVYI	0.411 ± 0.02	0.35 ± 0.037	0.435 ± 0.021	0.383 ± 0.07	0.486 ± 0.017	0.302 ± 0.03	0.312 ± 0.0037	0.44 ± 0.031
LFSTRRWISVCA	0.0789 ± 0.016	0.0208 ± 0.0016	0.0362 ± 0.013	0.134 ± 0.035	0.127 ± 0.011	0.0486 ± 0.012	0.054 ± 0.0027	0.0577 ± 0.015
LFSVLVFIYFVM	0.127 ± 0.022	0.102 ± 0.032	0.113 ± 0.017	0.169 ± 0.034	0.288 ± 0.07	0.17 ± 0.016	0.133 ± 0.0054	0.217 ± 0.025
LFTSGNSLVLVH	0.365 ± 0.0042	0.21126 ± 0.00018	0.257 ± 0.02	0.236 ± 0.037	0.3909 ± 0.00093	0.202 ± 0.0086	0.25 ± 0.034	0.362 ± 0.0076
LFYVSFLFMLLF	0.378 ± 0.01	0.359 ± 0.084	0.34751 ± 0.00024	0.363 ± 0.036	0.459 ± 0.025	0.396 ± 0.0059	0.325 ± 0.013	0.447 ± 0.029
